Laboratory results published in PMC10079162 (Nature Communications, 2023).
Substitutions are numbered along the chain they refer to. Names and notes keep the numbering of the source.

B1: CR3022 M40P S56G Q67R; T59K (output_8) (antibody, V domains shown)
VH: QMQLVQSGTEVKKPGESLKISCKGSGYGFITYWIGWVRQPPGKGLEWMGIIYPGDGETRYSPSFQGRVTISADKSINTAYLQWSSLKASDTAIYYCAGGSGISTPMDVWGQGTTVTVVS
VL: not shown
B2: Nb.b201 WT (VHH)
VHH: QVQLQESGGGLVQAGGSLRLSCAASGYISDAYYMGWYRQAPGKEREFVATITHGTNTYYADSVKGRFTISRDNAKNTVYLQMNSLKPEDTAVYYCAVLETRSYSFRYWGQGTQVTVSS
notes: source: HEK293 cells; obtained at high purity
B3: Nb.b201 T55G (VHH)
VHH: B2 VHH with T55G
notes: as for B2
B4: Nb.b201 A31D (VHH)
VHH: B2 VHH with A31D
notes: as for B2
B5: Nb.b201 A31D T55G (VHH)
VHH: B2 VHH with A31D, T55G
notes: as for B2
B6: Nb.b201 H53P (VHH)
VHH: B2 VHH with H53P
notes: as for B2
B7: Nb.b201 T55D (VHH)
VHH: B2 VHH with T55D
notes: as for B2
B8: Nb.b201 H53R (VHH)
VHH: B2 VHH with H53R
notes: as for B2
B9: Nb.b201 H53P T55G (VHH)
VHH: B2 VHH with H53P, T55G
notes: as for B2
B10: Nb.b201 A31D T55D (VHH)
VHH: B2 VHH with A31D, T55D
notes: as for B2

Each binder was assayed against SARS CoV-2 RBD (SARS-CoV-2, strain  …, UniProt P0DTC2) (assay: not given). Details: not given.
B1: binds.

What follows are binders tested against T1, human serum albumin (Homo sapiens, UniProt P02768) (assay: BLI; format and conditions not told in the main text (methods are in the Supplementary Materials)). Details: both partners purified.
T1 construct: also called HSA
B2: binds. B3: binds. B4: binds. B5: binds. B6: binds. B7: binds. B8: binds. B9: binds. B10: binds.
